Assay results taken from the supplement of paper PMC7877785.
± gives the uncertainty stated by the source.

Assay: self-splicing fitness, log relative to wild type (ln ratio); higher = more splicing; Tetrahymena group I intron in knt gene, E. coli kanamycin selection, DiMSum; sequences stand for … in CUCUCU…GGAGGGAAAAGUUAUCAGGCAUGCACCUGGUAGCUAGUCUUUAAACCAAUAGAUUGCAUCGGUUUAAAAGGCAAGACCGUCAAAUUGCGGGAAAGGGGUCAACAGCCGUUCAGUACCAAGUCUCAGGGGAAACUUUGAGAUGGCCUUGCAAAGGGUAUGGUAAUAAGCUGACGGACAUGGUCCUAACCACGCAGCCAAGUCCUAAGUCAACAGAUCUUCUGUUGAUAUGGAUGCAGUUCACAGACUAAAUGUCGGUCGGGGAAGAUGUAUUCUUCUCAUAAGAUAUAGUCGGACCUCUCCUUAAUGGGAGCUAGCGGAUGAAGUGAUGCAACACUGGAGCCGCUGGGAACUAAUUUGUAUGCGAAAGUAUAUUGAUUAGUUUUGGAGUACUCGUGGUCG
Outline: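 Fitness was computed with DiMSum as the error-weighted combination of replicate fold changes, kanamycin versus none, each normalised to wild type. The library randomised all eight intron nucleotides of the P1ex region, with the intron placed in the knt kanamycin-resistance gene on pET-22b(+) in E. coli BL21(DE3). Six replicate transformations were grown overnight at 37°C or 30°C on LB agar with or without 25 μg/mL kanamycin, plus 100 μg/mL carbenicillin, 50 μM IPTG and 0.2% rhamnose. Pooled colonies were amplicon-sequenced on an Illumina HiSeq 2500.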

Row | Sequence | self-splicing fitness (ln) (30 °C) | self-splicing fitness (ln) (37 °C)
1 | GGUUAGCAAUAUUACGAAUC | -1.76 ± 0.16 | -1.06 ± 0.24
2 | GGUUAGCAAUAUUACGCAAG | -2.45 ± 0.16 | -1.01 ± 0.12
3 | GGUUAGCAAUAUUACGCGAG | -1.9 ± 0.2 | -0.416 ± 0.13
4 | GGUUAGCAAUAUUACGCUCC | -1.71 ± 0.39 | 0.76 ± 0.48
5 | GGUUAGCAAUAUUACGCUGC | -1.38 ± 0.26 | –
6 | GGUUAGCAAUAUUACGGACA | -0.743 ± 0.12 | 0.373 ± 0.15
7 | GGUUAGCAAUAUUACGGCCG | -0.999 ± 0.19 | -0.019 ± 0.25
8 | GGUUAGCAAUAUUACGGGAU | -3.13 ± 0.26 | -1.4 ± 0.24
9 | GGUUAGCAAUAUUACGGGCU | -3.26 ± 0.41 | -1.68 ± 0.32
10 | GGUUAGCAAUAUUACGGGUG | -1.7 ± 0.1 | -1.08 ± 0.12
11 | GGUUAGCAAUAUUACGUAGG | -2.51 ± 0.18 | -1.03 ± 0.14
12 | GGUUAGCAAUAUUACGUGCA | -0.869 ± 0.19 | -0.121 ± 0.18
13 | GGUUAGCAAUAUUACGUGGA | -2.72 ± 0.2 | -1.08 ± 0.14
14 | GGUUAGCAAUAUUACGUUCA | 0.228 ± 0.14 | -0.557 ± 0.13
15 | GGUUAGCAAUAUUACGUUUA | -1.5 ± 0.096 | -0.992 ± 0.088
16 | GGUUAGCAAUAUUACGUUUU | -1.03 ± 0.055 | -0.945 ± 0.083
17 | GUAAAGCAAUAUUACGAAAC | -1.83 ± 0.13 | -0.6 ± 0.13
18 | GUAAAGCAAUAUUACGAACU | -0.845 ± 0.11 | -0.0974 ± 0.14
19 | GUAAAGCAAUAUUACGAAUC | -1.71 ± 0.14 | -0.902 ± 0.14

Row | Sequence | self-splicing fitness (ln) (30 °C) | self-splicing fitness (ln) (37 °C)
20 | GUAAAGCAAUAUUACGACGA | 0.208 ± 0.073 | 1.1 ± 0.1
21 | GUAAAGCAAUAUUACGACUA | -0.649 ± 0.097 | -0.957 ± 0.11
22 | GUAAAGCAAUAUUACGAUAG | -1.08 ± 0.075 | -0.747 ± 0.11
23 | GUAAAGCAAUAUUACGAUUG | -2.98 ± 0.18 | -0.942 ± 0.22
24 | GUAAAGCAAUAUUACGAUUU | -0.348 ± 0.051 | 0.232 ± 0.065
25 | GUAAAGCAAUAUUACGCAUC | -1.36 ± 0.11 | -0.97 ± 0.15
26 | GUAAAGCAAUAUUACGCCAC | – | -1.86 ± 0.24
27 | GUAAAGCAAUAUUACGCCGG | -1.27 ± 0.13 | 0.13 ± 0.17
28 | GUAAAGCAAUAUUACGCGCU | -1.4 ± 0.075 | -0.523 ± 0.096
29 | GUAAAGCAAUAUUACGCGGU | -2.79 ± 0.12 | -1.87 ± 0.15
30 | GUAAAGCAAUAUUACGCUAU | -1.22 ± 0.087 | -0.23 ± 0.1
31 | GUAAAGCAAUAUUACGCUCG | -0.0287 ± 0.1 | 0.709 ± 0.13
32 | GUAAAGCAAUAUUACGGAAA | -2.68 ± 0.14 | -1.38 ± 0.18
33 | GUAAAGCAAUAUUACGGAAU | -0.906 ± 0.099 | -0.779 ± 0.15
34 | GUAAAGCAAUAUUACGGACG | -1.06 ± 0.12 | 0.298 ± 0.15
35 | GUAAAGCAAUAUUACGGCCG | -0.257 ± 0.087 | 0.625 ± 0.12
36 | GUAAAGCAAUAUUACGGGUA | -1.02 ± 0.078 | -0.464 ± 0.085
37 | GUAAAGCAAUAUUACGGUGU | -1.5 ± 0.056 | -0.647 ± 0.07
38 | GUAAAGCAAUAUUACGUAUC | -1.1 ± 0.07 | -0.568 ± 0.098
